From article PMC4503226 (FASEB journal : official publication of the Federation of …, 2011)

Target: the molecule itself
Experiment: FRET or BRET

B1: hOCT2 tagged with CFP or YFP at the N terminus (natural protein)
chain: MPTTVDDVLEHGGEFHFFQKQMFFLLALLSATFAPIYVGIVFLGFTPDHRCRSPGVAELSLRCGWSPAEELNYTVPGPGPAGEASPRQCRRYEVDWNQSTFDCVDPLASLDTNRSRLPLGPCRDGWVYETPGSSIVTEFNLVCANSWMLDLFQSSVNVGFFIGSMSIGYIADRFGRKLCLLTTVLINAAAGVLMAISPTYTWMLIFRLIQGLVSKAGWLIGYILITEFVGRRYRRTVGIFYQVAYTVGLLVLAGVAYALPHWRWLQFTVSLPNFFFLLYYWCIPESPRWLISQNKNAEAMRIIKHIAKKNGKSLPASLQRLRLEEETGKKLNPSFLDLVRTPQIRKHTMILMYNWFTSSVLYQGLIMHMGLAGDNIYLDFFYSALVEFPAAFMIILTIDRIGRRYPWAASNMVAGAACLASVFIPGDLQWLKIIISCLGRMGITMAYEIVCLVNAELYPTFIRNLGVHICSSMCDIGGIITPFLVYRLTNIWLELPLMVFGVLGLVAGGLVLLLPETKGKALPETIEEAENMQRPRKNKEKMIYLQVQKLDIPLN
Question: How did the NFRET turn out when B1 was run?
Answer: 0.176
